The source of these data is PMC6224480, “Insights into Kinesin-1 Activation from the Crystal Structure of KLC2 Bound to JIP3” (Structure(London, England:1993), 2018).

Common to all, as to conditions: both partners purified
Test [1] concerns the target T1, KLC2^TPR-myc (wild type) (murine, UniProt O88448 190-479).
T1 construct: kinesin light chain 2 (KLC2), murine, TPR domain, residues 191-480; also called KLC2^TPR-myc protein; source: E. coli BL21(DE3) Rosetta, purified (His-trap, ULP1 cleavage, SEC); not shown: His6-SUMO, N-terminal, cleaved
Description: fluorescence polarisation; competition: FITC-LFP peptide (300 nM) and KLC2^TPR-myc fixed at 21 μM, 2-fold serial dilutions of unlabelled CSTN-WD1 peptide or Trp-JIP3^LZ; 0.1 M NaCl, 25 mM HEPES, 5 mM MgCl2, 1 mM TCEP, pH 7.5; competitive inhibition model. In general terms: In fluorescence polarisation assays a small probe gives low polarisation when free and higher when bound to something large.

For test [2], the target named is T1, KLC2^TPR-myc (wild type). As to the kind of experiment: fluorescence polarisation; FITC-LFP peptide (300 nM) with 2-fold dilutions of KLC2^TPR-myc; 0.1 M NaCl, 25 mM HEPES, 5 mM MgCl2, 1 mM TCEP, pH 7.5; 1 hour, room temperature; fluorescence anisotropy.
The target in test [3] is KLC2^TPR-myc third TPR1 mutant, printed as L220Y in Table S2 (mouse, UniProt O88448 191-480). Description: ITC; FITC-CSTN-WD2 peptide as titrant (380 uM) into wild-type or mutant KLC2^TPR-myc (44-50 uM) in the cell; 25 C; 0.1 M NaCl, 25 mM HEPES, 1 mM TCEP, pH 7.5; 2-3 experiments globally fitted with the model A + B -> AB; apparent stoichiometry Napp. (In ITC the heat of successive injections is recorded.)

In test [4] the target is T1, KLC2^TPR-myc (wild type). As to the kind of experiment: ITC; wild-type or mutant KLC2^TPR-myc (44-50 μM) in the cell; Trp-JIP3^LZ (dimer 297-330 μM) or FITC-CSTN-WD2 peptide (380 μM) as titrant; 0.1 M NaCl, 25 mM HEPES, 1 mM TCEP, pH 7.5.
Test [5] deals with T2, KLC2^TPR-myc Thr^200Asp mutant (murine, UniProt O88448 190-479, Thr^200Asp).
T2 construct: kinesin light chain 2 (KLC2), murine, TPR domain, residues 191-480; source: E. coli BL21(DE3) Rosetta, purified (His-trap, ULP1 cleavage, SEC); not shown: His6-SUMO, N-terminal, cleaved
The description is as above.

For test [6], the target named is T3, KLC2^TPR-myc Tyr^208Ala mutant (murine, UniProt O88448 190-479, Tyr^208Ala).
T3 construct: kinesin light chain 2 (KLC2), murine, TPR domain, residues 191-480; source: E. coli BL21(DE3) Rosetta, purified (His-trap, ULP1 cleavage, SEC); not shown: His6-SUMO, N-terminal, cleaved
The test is described as above.

The target in test [7] is T4, KLC2^TPR-myc Gln^223Lys mutant (murine, UniProt O88448 190-479, Gln^223Lys).
T4 construct: kinesin light chain 2 (KLC2), murine, TPR domain, residues 191-480; source: E. coli BL21(DE3) Rosetta, purified (His-trap, ULP1 cleavage, SEC); not shown: His6-SUMO, N-terminal, cleaved
The description is as above.

*: point of attachment. FITC = O=C1OC2(c3ccc(O)cc3Oc3cc(O)ccc32)c2ccc(NC(=S)*)cc21

T1 sequence (O88448 190-479): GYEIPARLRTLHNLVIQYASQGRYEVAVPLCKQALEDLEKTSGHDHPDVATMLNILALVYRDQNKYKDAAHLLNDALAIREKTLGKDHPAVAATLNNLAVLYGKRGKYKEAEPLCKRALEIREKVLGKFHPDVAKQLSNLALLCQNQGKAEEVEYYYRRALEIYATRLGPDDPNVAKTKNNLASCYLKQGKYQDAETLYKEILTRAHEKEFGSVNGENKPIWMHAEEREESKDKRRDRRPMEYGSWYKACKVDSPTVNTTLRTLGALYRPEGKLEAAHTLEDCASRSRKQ
Chain of KLC2^TPR-myc third TPR1 mutant, printed as L220Y in Table S2 (O88448 other isoform, or with tags, fused parts or gaps L220Y): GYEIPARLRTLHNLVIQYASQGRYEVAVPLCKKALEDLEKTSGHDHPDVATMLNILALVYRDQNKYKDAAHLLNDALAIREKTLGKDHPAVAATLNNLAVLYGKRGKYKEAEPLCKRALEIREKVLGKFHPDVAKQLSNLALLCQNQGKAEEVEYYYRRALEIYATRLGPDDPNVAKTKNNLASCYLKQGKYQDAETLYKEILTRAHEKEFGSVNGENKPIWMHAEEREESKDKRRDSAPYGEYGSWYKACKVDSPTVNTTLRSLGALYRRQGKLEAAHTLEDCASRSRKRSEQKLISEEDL
T3 sequence (O88448 other isoform, or with tags, fused parts or gaps Tyr^208Ala | Tyr^208Ala | mutant): as the sequence (O88448 190-479) above, with Y18A counted along it
T4 sequence (O88448 other isoform, or with tags, fused parts or gaps Gln^223Lys | Gln^223Lys | mutant): as the sequence (O88448 190-479) above, with Q33K counted along it
T2 sequence (O88448 other isoform, or with tags, fused parts or gaps Thr^200Asp | Thr^200Asp | mutant): as the sequence (O88448 190-479) above, with T10D counted along it

B1: N-terminally acetylated CSTN-WD1 peptide (Ac-GKENEMDWDDSALTITVN-COOH) (peptide)
peptide: Ac-GKENEMDWDDSALTITVN-OH
notes: tryptophan-acidic motif WD1 of calsyntenin-1; also called calsyntenin-1 peptide; tryptophan-acidic peptide; source: synthetic peptide (Peptide Synthesis Laboratory, Francis Crick Institute, UK)
Broadly, the Ki is the equilibrium dissociation constant of an inhibitor or competing ligand from its target. B1 displayed an inhibition constant (Ki) in test [1] of 11.3 µM.

B2: FITC-labeled KLC2 LFP motif peptide (FITC-DSLDDLFPNEDEQS-COOH) (peptide)
peptide: {FITC}-DSLDDLFPNEDEQS-OH
notes: LFP motif (KLC2 residues 167-169) of the acidic linker of kinesin light chain 2; also called FITC-LFP peptide; FITC-labelled LFP-motif peptide; source: synthetic peptide, bought: Biomatik
As a reminder, the Kd is the free concentration of one partner at which half of the binding sites on the other are occupied at equilibrium, for simple one-to-one binding. The low end stands for higher affinity, the high end for lower affinity. For the molecule B2, in test [2], binding was characterised by a dissociation constant (Kd) of 37 µM.

B3: FITC-labeled CSTN(WD2) peptide (FITC-TRQLEWDDSTL-COOH) (peptide)
peptide: {FITC}-TRQLEWDDSTL-OH
notes: tryptophan-acidic peptide (WD2 motif) derived from calsyntenin-1; also called FITC-CSTN-WD2 peptide; source: synthetic peptide; bought: Biomatik
For orientation: stoichiometry N means the number of molecules, sites or subunits per partner or assembly. With B3, in test [3], the Ka came to 739000 M⁻¹ and the “stoichiometry N” value turned out to be 0.71.

B4: FITC-labeled CSTN(WD2) peptide (FITC-TRQLEWDDSTL-COOH) (peptide)
peptide: {FITC}-TRQLEWDDSTL-OH
notes: tryptophan-acidic motif WD2 of calsyntenin-1; also called FITC-CSTN-WD2 peptide; tryptophan-acidic cargo peptide; source: synthetic peptide, bought: Biomatik
For the molecule B4, the “stoichiometry N” value in test [4], in test [5], in test [6] and in test [7] was approximately 0.7 throughout.
